Where a chain is given by its changes, count along the chain named. Numbers in names are those of the source. Blank lines part the entries; values can stand above or below the binder they belong to.
Key:
[1] = target: feline FcRn complex (FcRn-α subunit and β-microglobulin) (feline); assay: SPR (Biacore), FcRn on SA chip, pH 6
[2] = target: feline FcRn complex (FcRn-α subunit and β-microglobulin) (feline); assay: SPR (Biacore), FcRn on SA chip, pH 7.4

B1: feline IgG1a mutant ID No. 269: S252F, S434R, Q311W (antibody, part only; not given: Variable domains, not shown: another chain or arm of the molecule)
constant: ASTTAPSVFPLAPSCGTTSGATVALACLVLGYFPEPVTVSWNSGALTSGVHTFPAVLQASGLYSLSSMVTVPSSRWLSDTFTCNVAHPPSNTKVDKTVRKTDHPPGPKPCDCPKCPPPEMLGGPSIFIFPPKPKDTLFISRTPEVTCLVVDLGPDDSDVQITWFVDNTQVYTAKTSPREEQFNSTYRVVSVLPILHWDWLKGKEFKCKVNSKSLPSPIERTISKAKGQPHEPQVYVLPPAQEELSRNKVSVTCLIKSFHPPDIAVEWEITGQPEPENNYRTTPPQLDSDGTYFVYSKLSVDRSHWQRGNTYTCSVSHEALHRHHTQKSLTQSPGK
Kd [1]: 11.3 nM
Kd [2]: 1520 nM

B3: feline IgG1a mutant ID No. 297: S428Y, D312P, L314K, S434Y (antibody, part only; not given: Variable domains, not shown: another chain or arm of the molecule)
constant: B1 constant with F138S, W197Q, D198P, L200K, S316Y, R322Y
Kd [1]: 0.898 nM
Kd [2]: 82.9 nM

B5: feline IgG1a mutant ID No. 272: S252R, S434F (antibody, part only; not given: variable domains, not shown: another chain or arm of the molecule)
constant: B1 constant with F138R, W197Q, R322F
Kd [1]: 7.96 nM
Kd [2]: 11900 nM

B7: feline IgG1a mutant ID No. 296: S252Y, S428Y, Q311W, S434Y (antibody, part only; not given: Variable domains, not shown: another chain or arm of the molecule; small tags and cut ends)
constant: B1 constant with F138Y, S316Y, R322Y
Kd [1]: 0.544 nM
Kd [2]: 1480 nM

B8: feline IgG1a mutant ID No. 293: S252Y, S428Y, Q311W, D312P, S434Y (antibody, part only; not given: Variable domains, not shown: another chain or arm of the molecule; small tags and cut ends)
constant: B1 constant with F138Y, D198P, S316Y, R322Y
Kd [1]: 1.07 nM
Kd [2]: 2930 nM

B9: feline IgG1a mutant ID No. 285: S252Y, Q311W, L314K, S434Y (antibody, part only; not given: Variable domains, not shown: another chain or arm of the molecule)
constant: B1 constant with F138Y, L200K, R322Y
Kd [1]: 1.21 nM
Kd [2]: 1730 nM

B10: feline IgG1a mutant ID No. 300: S428Y, Q311W, D312P, S434Y (antibody, part only; not given: Variable domains, not shown: another chain or arm of the molecule)
constant: B1 constant with F138S, D198P, S316Y, R322Y
Kd [1]: 0.235 nM
Kd [2]: 182 nM

B11: feline IgG1a mutant ID No. 273: S252R, S434F, Q311W (antibody, part only; not given: Variable domains, not shown: another chain or arm of the molecule)
constant: B1 constant with F138R, R322F
Kd [1]: 4.77 nM
Kd [2]: 4760 nM

B13: feline IgG1a mutant ID No. 281: S252Y, D312P, L314K, S434Y (antibody, part only; not given: Variable domains, not shown: another chain or arm of the molecule)
constant: B1 constant with F138Y, W197Q, D198P, L200K, R322Y
Kd [1]: 2.35 nM
Kd [2]: 1590 nM

B14: feline IgG1a mutant ID No. 295: S252Y, S428Y, Q311W, L314K, S434Y (antibody, part only; not given: Variable domains, not shown: another chain or arm of the molecule; small tags and cut ends)
constant: B1 constant with F138Y, L200K, S316Y, R322Y
Kd [1]: 0.675 nM
Kd [2]: 201 nM

B15: feline IgG1a mutant ID No. 287: S252Y, S428Y, D312P, L314K, S434Y (antibody, part only; not given: Variable domains, not shown: another chain or arm of the molecule)
constant: B1 constant with F138Y, W197Q, D198P, L200K, S316Y, R322Y
Kd [1]: 0.633 nM
Kd [2]: 127 nM

B16: feline IgG1a mutant ID No. 288: S252Y, S428Y, D312P, S434Y (antibody, part only; not given: Variable domains, not shown: another chain or arm of the molecule)
constant: B1 constant with F138Y, W197Q, D198P, S316Y, R322Y
Kd [1]: 0.0268 nM
Kd [2]: 3.22 nM

B17: feline IgG1a mutant ID No. 283: S252Y, Q311W, D312P, L314K, S434Y (antibody, part only; not given: Variable domains, not shown: another chain or arm of the molecule)
constant: B1 constant with F138Y, D198P, L200K, R322Y
Kd [1]: 1.14 nM
Kd [2]: 300 nM

B18: feline IgG1a mutant ID No. 294: S252Y, S428Y, Q311W, L314K (antibody, part only; not given: variable domains and light chain, not shown: another chain or arm of the molecule; small tags and cut ends)
constant: B1 constant with F138Y, L200K, S316Y, R322S
Kd [1]: 0.692 nM
Kd [2]: 12.8 nM

B19: feline IgG1a mutant ID No. 289: S252Y, S428Y, L314K, S434Y (antibody, part only; not given: Variable domains, not shown: another chain or arm of the molecule)
constant: B1 constant with F138Y, W197Q, L200K, S316Y, R322Y
Kd [1]: 0.808 nM
Kd [2]: 132 nM

B20: feline IgG1a mutant ID No. 270: S252F, S434W, Q311W (antibody, part only; not given: variable domains and light chain, not shown: another chain or arm of the molecule)
constant: B1 constant with R322W
Kd [1]: 3.68 nM
Kd [2]: 2640 nM

B21: feline IgG1a mutant ID No. 276: S252R, S434R, Q311W (antibody, part only; not given: variable domains and light chain, not shown: another chain or arm of the molecule)
constant: B1 constant with F138R
Kd [1]: 28.7 nM
Kd [2]: 14800 nM

B22: feline IgG1a mutant ID No. 290: S252Y, S428Y, Q311W, D312P (antibody, part only; not given: Variable domains, not shown: another chain or arm of the molecule; small tags and cut ends)
constant: B1 constant with F138Y, D198P, S316Y, R322S
Kd [1]: 3.08 nM
Kd [2]: 254 nM

B23: feline IgG1a mutant ID No. 299: S428Y, Q311W, D312P, L314K, S434Y (antibody, part only; not given: variable domains and light chain, not shown: another chain or arm of the molecule)
constant: B1 constant with F138S, D198P, L200K, S316Y, R322Y
Kd [1]: 1.17 nM
Kd [2]: 79.6 nM

B26: feline IgG1a mutant ID No. 291: S252Y, S428Y, Q311W, D312P, L314K (antibody, part only; not given: Variable domains, not shown: another chain or arm of the molecule; small tags and cut ends)
constant: B1 constant with F138Y, D198P, L200K, S316Y, R322S
Kd [1]: 39.7 nM
Kd [2]: 16700 nM

B27: feline IgG1a mutant ID No. 271: S252F, S434Y, Q311W (antibody, part only; not given: Variable domains, not shown: another chain or arm of the molecule)
constant: B1 constant with R322Y
Kd [1]: 0.0969 nM
Kd [2]: 6.21 nM

B29: feline IgG1a mutant ID No. 277: S252R, S434W (antibody, part only; not given: Variable domains, not shown: another chain or arm of the molecule)
constant: B1 constant with F138R, W197Q, R322W
Kd [1]: 7.1 nM
Kd [2]: 6600 nM

B31: feline IgG1a mutant ID No. 282: S252Y, Q311W, D312P, L314K (antibody, part only; not given: Variable domains, not shown: another chain or arm of the molecule)
constant: B1 constant with F138Y, D198P, L200K, R322S
Kd [1]: 30 nM
Kd [2]: 119 nM

B32: feline IgG1a mutant ID No. 280: S252R, S434Y, Q311W (antibody, part only; not given: Variable domains, not shown: another chain or arm of the molecule)
constant: B1 constant with F138R, R322Y
Kd [1]: 2.87 nM
Kd [2]: 4400 nM

B34: feline IgG1a mutant ID No. 274: S252R, S434H, Q311W (antibody, part only; not given: Variable domains, not shown: another chain or arm of the molecule)
constant: B1 constant with F138R, R322H
Kd [1]: 5.62 nM
Kd [2]: 3850 nM

B35: feline IgG1a mutant ID No. 292: S252Y, S428Y, Q311W, D312P, L314K, S434Y (antibody, part only; not given: variable domains and light chain, not shown: another chain or arm of the molecule; small tags and cut ends)
constant: B1 constant with F138Y, D198P, L200K, S316Y, R322Y
Kd [1]: 4.01 nM
Kd [2]: 2720 nM

B37: feline IgG1a mutant ID No. 279: S252R, S434Y (antibody, part only; not given: Variable domains, not shown: another chain or arm of the molecule)
constant: B1 constant with F138R, W197Q, R322Y
Kd [1]: 10.8 nM
Kd [2]: 12100 nM

Next, values leading:

Kd [1]: 8.21 nM
Kd [2]: 24.4 nM
B2: feline IgG1a mutant ID No. 310: P247V, T250Q, S252H (antibody, part only; not given: variable domains and light chain, not shown: another chain or arm of the molecule; small tags and cut ends)
constant: B1 constant with P133V, T136Q, F138H, W197Q, R322S

Kd [1]: 4.87 nM
Kd [2]: 2420 nM
B4: feline IgG1a mutant ID No. 316: S428M, A431K (antibody, part only; not given: Variable domains, not shown: another chain or arm of the molecule)
constant: B1 constant with F138S, W197Q, S316M, A319K, R322S

Kd [1]: 0.135 nM
Kd [2]: 25.3 nM
B6: feline IgG1a mutant ID No. 318: S428M, A431K, S434Y (antibody, part only; not given: Variable domains, not shown: another chain or arm of the molecule)
constant: B1 constant with F138S, W197Q, S316M, A319K, R322Y

Kd [1]: 0.0539 nM
Kd [2]: 10.2 nM
B12: feline IgG1a mutant ID No. 321: S428Y, D312P, S434Y, A431K (antibody, part only; not given: Variable domains, not shown: another chain or arm of the molecule)
constant: B1 constant with F138S, W197Q, D198P, S316Y, A319K, R322Y

Kd [1]: 1.11 nM
Kd [2]: 494 nM
B24: feline IgG1a mutant ID No. 301: S428Y, Q311W, L314K, S434Y (antibody, part only; not given: Variable domains, not shown: another chain or arm of the molecule)
constant: B1 constant with F138S, L200K, S316Y, R322Y

Kd [1]: 1.33 nM
Kd [2]: 26.3 nM
B25: feline IgG1a mutant ID No. 303: A431K, S434Y (antibody, part only; not given: variable domains and light chain, not shown: another chain or arm of the molecule)
constant: B1 constant with F138S, W197Q, A319K, R322Y

Kd [1]: 22.2 nM
Kd [2]: 15.6 nM
B28: feline IgG1a mutant ID No. 317: S428M, A431K, S434P (antibody, part only; not given: variable domains and light chain, not shown: another chain or arm of the molecule)
constant: B1 constant with F138S, W197Q, S316M, A319K, R322P

Kd [1]: 5.61 nM
Kd [2]: 17.9 nM
B30: feline IgG1a mutant ID No. 308: P247V, S252H (antibody, part only; not given: Variable domains, not shown: another chain or arm of the molecule; small tags and cut ends)
constant: B1 constant with P133V, F138H, W197Q, R322S

Kd [1]: 0.0072 nM
Kd [2]: 11.1 nM
B33: feline IgG1a mutant ID No. 325: S428Y, D312P, S434Y, D401R, T403R (antibody, part only; not given: Variable domains, not shown: another chain or arm of the molecule)
constant: B1 constant with F138S, W197Q, D198P, D289R, T291R, S316Y, R322Y

Kd [1]: 0.113 nM
Kd [2]: 21.6 nM
B36: feline IgG1a mutant ID No. 324: S428Y, D312P, S434Y, D399M, T403R (antibody, part only; not given: Variable domains, not shown: another chain or arm of the molecule)
constant: B1 constant with F138S, W197Q, D198P, D287M, T291R, S316Y, R322Y

Kd [1]: 6.96 nM
Kd [2]: 1080 nM
B38: feline IgG1a mutant ID No. 319: S428Y, D312P, A431K, S434P (antibody, part only; not given: variable domains, not shown: another chain or arm of the molecule)
constant: B1 constant with F138S, W197Q, D198P, S316Y, A319K, R322P

— US20240400708A1
